Target: the molecule itself
Test: SDS-PAGE of undigested full-length DIG-177 (self-association)
Description: SDS-PAGE was run following the protocol NuPAGE Bis-Tris gels from Invitrogen Life technologies (Protocol Pub. No. MAN0007894 Rev. A.0, Ref.2). Briefly, samples were mixed with denaturing sample buffer (Invitrogen) plus 5 mM DTT (for reducing PAGE) or minus DTT (for non reducing PAGE) and heated at 95° C. for 5 minutes. The samples were loaded onto Invitrogen Bis/Tris gel. The gel was run with MOPS or MES running buffer under 200 V for ˜43 minutes. The gel was stained with Coomassie blue staining solution (Bio-Rad) for 30 minutes and de-stained with de-staining solution (7% Acetic acid and 5% Methanol in water) until the background cleared.

B1: DIG-177 (full length wild type Cry6Aa) (other)
chain: MIIDSKTTLPRHSLIHTIKLNSNKKYGPGDMTNGNQFIISKQEWATIGAYIQTGLGLPVNEQQLRTHVNLSQDISIPSDFSQLYDVYCSDKTSAEWWNKNLYPLIIKSANDIASYGFKVAGDPSIKKDGYFKKLQDELDNIVDNNSDDDAIAKAIKDFKARCGILIKEAKQYEEAAKNIVTSLDQFLHGDQKKLEGVINIQKRLKEVQTALNQAHGESSPAHKELLEKVKNLKTTLERTIKAEQDLEKKVEYSFLLGPLLGFVVYEILENTAVQHIKNQIDEIKKQLDSAQHDLDRDVKIIGMLNSINTDIDNLYSQGQEAIKVFQKLQGIWATIGAQIENLRTTSLQEVQDSDDADEIQIELEDASDAWLVVAQEARDFTLNAYSTNSRQNLPINVISDSCNCSTTNMTSNQYSNPTTNMTSNQYMISHEYTSLPNNFMLSRNSNLEYKCPENNFMIYWYNNSDWYNNSDWYNN
notes: Recombinant, produced in Pseudomonas fluorescens (standard) or in maize cells (Western blots)
B1: binds.

From patent US20200184403A1 (DOW AGROSCIENCES, published 2020)
